Experimental data reported in IntAct's records for PubMed 20498086.

B1: Nuclear pore complex protein Nup98-Nup96 (Homo sapiens), P52948 (parent)
chain: MFNKSFGTPFGGGTGGFGTTSTFGQNTGFGTTSGGAFGTSAFGSSNNTGGLFGNSQTKPGGLFGTSSFSQPATSTSTGFGFGTSTGTANTLFGTASTGTSLFSSQNNAFAQNKPTGFGNFGTSTSSGGLFGTTNTTSNPFGSTSGSLFGPSSFTAAPTGTTIKFNPPTGTDTMVKAGVSTNISTKHQCITAMKEYESKSLEELRLEDYQANRKGPQNQVGAGTTTGLFGSSPATSSATGLFSSSTTNSGFAYGQNKTAFGTSTTGFGTNPGGLFGQQNQQTTSLFSKPFGQATTTQNTGFSFGNTSTIGQPSTNTMGLFGVTQASQPGGLFGTATNTSTGTAFGTGTGLFGQTNTGFGAVGSTLFGNNKLTTFGSSTTSAPSFGTTSGGLFGNKPTLTLGTNTNTSNFGFGTNTSGNSIFGSKPAPGTLGTGLGAGFGTALGAGQASLFGNNQPKIGGPLGTGAFGAPGFNTTTATLGFGAPQAPVALTDPNASAAQQAVLQQHINSLTYSPFGDSPLFRNPMSDPKKKEERLKPTNPAAQKALTTPTHYKLTPRPATRVRPKALQTTGTAKSHLFDGLDDDEPSLANGAFMPKKSIKKLVLKNLNNSNLFSPVNRDSENLASPSEYPENGERFSFLSKPVDENHQQDGDEDSLVSHFYTNPIAKPIPQTPESAGNKHSNSNSVDDTIVALNMRAALRNGLEGSSEETSFHDESLQDDREEIENNSYHMHPAGIILTKVGYYTIPSMDDLAKITNEKGECIVSDFTIGRKGYGSIYFEGDVNLTNLNLDDIVHIRRKEVVVYLDDNQKPPVGEGLNRKAEVTLDGVWPTDKTSRCLIKSPDRLADINYEGRLEAVSRKQGAQFKEYRPETGSWVFKVSHFSKYGLQDSDEEEEEHPSKTSTKKLKTAPLPPASQTTPLQMALNGKPAPPPQSQSPEVEQLGRVVELDSDMVDITQEPVLDTMLEESMPEDQEPVSASTHIASSLGINPHVLQIMKASLLTDEEDVDMALDQRFSRLPSKADTSQEICSPRLPISASHSSKTRSLVGGLLQSKFTSGAFLSPSVSVQECRTPRAASLMNIPSTSSWSVPPPLTSVFTMPSPAPEVPLKTVGTRRQLGLVPREKSVTYGKGKLLMDMALFMGRSFRVGWGPNWTLANSGEQLNGSHELENHQIADSMEFGFLPNPVAVKPLTESPFKVHLEKLSLRQRKPDEDMKLYQTPLELKLKHSTVHVDELCPLIVPNLGVAVIHDYADWVKEASGDLPEAQIVKHWSLTWTLCEALWGHLKELDSQLNEPREYIQILERRRAFSRWLSCTATPQIEEEVSLTQKNSPVEAVFSYLTGKRISEACSLAQQSGDHRLALLLSQFVGSQSVRELLTMQLVDWHQLQADSFIQDERLRIFALLAGKPVWQLSEKKQINVCSQLDWKRSLAIHLWYLLPPTASISRALSMYEEAFQNTSDSDRYACSPLPSYLEGSGCVIAEEQNSQTPLRDVCFHLLKLYSDRHYDLNQLLEPRSITADPLDYRLSWHLWEVLRALNYTHLSAQCEGVLQASYAGQLESEGLWEWAIFVLLHIDNSGIREKAVRELLTRHCQLLETPESWAKETFLTQKLRVPAKWIHEAKAVRAHMESDKHLEALCLFKAEHWNRCHKLIIRHLASDAIINENYDYLKGFLEDLAPPERSSLIQDWETSGLVYLDYIRVIEMLRHIQQVDCSGNDLEQLHIKVTSLCSRIEQIQCYSAKDRLAQSDMAKRVANLLRVVLSLHHPPDRTSDSTPDPQRVPLRLLAPHIGRLPMPEDYAMDELRSLTQSYLRELAVGSL
partner: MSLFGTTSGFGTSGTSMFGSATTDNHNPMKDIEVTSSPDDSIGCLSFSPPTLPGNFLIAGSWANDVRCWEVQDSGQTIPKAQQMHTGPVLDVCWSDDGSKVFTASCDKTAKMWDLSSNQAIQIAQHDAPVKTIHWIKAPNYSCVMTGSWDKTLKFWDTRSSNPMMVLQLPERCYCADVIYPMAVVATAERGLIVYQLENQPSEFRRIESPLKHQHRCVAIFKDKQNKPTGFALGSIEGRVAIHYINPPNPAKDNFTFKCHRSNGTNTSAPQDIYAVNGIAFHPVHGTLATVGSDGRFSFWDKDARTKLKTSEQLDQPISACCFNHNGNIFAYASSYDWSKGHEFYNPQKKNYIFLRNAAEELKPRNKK

Variants of: B1
Conditions: with rae1l_human RAE1, P78406

Row | Variant | effect of a mutation on the interaction
1 | E201K;E202K | disrupting interaction
